T1: native human CD30L expressed on Ramos cells (human, UniProt P32971 1-234)
T1 construct: It is used here for the native protein on human B cell lines; also called huCD30L; Native huCD30L
T1 sequence: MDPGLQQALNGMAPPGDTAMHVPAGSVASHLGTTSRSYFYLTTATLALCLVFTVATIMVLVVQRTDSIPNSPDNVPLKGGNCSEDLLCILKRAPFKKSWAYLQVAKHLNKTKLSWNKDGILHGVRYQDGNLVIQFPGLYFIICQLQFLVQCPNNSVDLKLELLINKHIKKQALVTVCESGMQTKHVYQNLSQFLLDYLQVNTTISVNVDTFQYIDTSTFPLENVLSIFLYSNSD


Target: T1, native human CD30L expressed on Ramos …
Assay: FACS, antibody at 50 ug/mL, inhibition of huCD30.Fc-His binding to Ramos cells
Method: The antibodies were also screened for ability to block binding of human CD30L to a soluble human CD30. c molecule. Briefly, human Ramos cells or activated cynomolgus monkey T cells were incubated with anti-CD30L IgGs at 50 μg/mL in blocking buffer for 30 minutes at 4° C. Soluble huCD30. Fc-His was then added at a final concentration of 2.5 ug/mL (30 μL/well) and incubated for 30 minutes at 4° C. Cells were washed ×2 with PBS and incubated with 5 μg/mL of a mouse anti-His monoclonal antibody (30μL/well in blocking buffer) and incubated for 30 minutes at 4° C. After washing ×2 with PBS, cells were incubated with anti-mouse IgG-PE (1:50 in PBS; BD Pharmingen, San Diego, Calif.) for a further 30 minutes at […]. Cells were then washed ×2 with PBS and prepared for FACs analysis.

| Binder | % inhibition |
| --- | --- |
| Antibody A (antibody, V domains shown, Human antibody (XenoMouse); also called mAb A; anti-hCD30L A) VH: QVQLQESGPGLVKPSETLSLTCTVSGGSISSYIWSWIRQPAGKGLEWIGRIYASGNTNYNPSLKSRVTMSVDTSKNQFSLKLSSMTAADTAVYYCARDYRVAGTYYYYYGLDVWGQGTTVTVSS VL: QSALTQPASVSGSPGQSITISCTGTSSDVGVYDYVSWYQQHPGKAPKLMIYEVSNRPSGVSNRFSGSKSGNTASLTISGLQTEDEADYYCSSYTSRSTWVFGGGTKLTVL | 68% |
| Antibody B (antibody, V domains shown, also called mAb B) VH: QVQLQESGPGLVKPSETLSLTCTVSGGSISSYYWTWIRQPAGKGLEWIGRIYTSGITNYNPSLKSRVTMSVDTSKNQFSLKLSSVTAADTAVYYCARERVVGASRYYYYGVDVWGQGTTVTVSS VL: QSALTQPASVSGSPGQSITISCTGTSSDVGLYNYVSWYQQHPDKAPKLMIFEVNNRPSGVSNRFSGSNSGNTASLTISGLQAEDEADYYCSSYTSSSTWVFGGGTKLTVL | 70% |
| Antibody D (antibody, V domains shown, also called mAb D) VH: QVQLQESGPGLVKPSETLSLTCTVSGGSISSYSWSWIRQPAGKGLEWIGRTSTSGRNNYNPSLKSRVTMSVDTSKNQFSLKLNSVTAADTAVYYCARDFTIAARRYYYYGMDVWGQGTTVTVSS VL: QSALTQPASVSGSPGQSITISCTGTSSDIGLYNYVSWYQQHPGKAPKLIIYEVINRPSGVSNRFSGSESGNTASLTISGLQAEDEANYYCSSYTSSSTWVFGGGTKLTVL | 55% |
| Antibody C (antibody, V domains shown, also called mAb C) VH: QVQLQESGPGLVKPSETLSLTCTVSGGSISSYYWTWIRQPAGKGLEWIGRIYTSGITNYNPSLKSRVTMSVDTSKNQFSLKLSSVTAADTAVYYCARERVVGASRYYYYGVDVWGQGTTVTVSS VL: QSALTQPASVSGSPGQSITISCTGTSSDIGLYDYVSWYQQHPDRAPKLIIFEVNNRPSGVSYRFSGSNSGNTASLTISGLQAEDEADYYCSSYTSSSTWVFGGGTKLTVL | 88% |
| Antibody E (antibody, V domains shown, also called mAb E) VH: QVQLQESGPRLVKPSETLSLTCTVSGGSITNNYWSWIRQPAGKGLEWIGRVYSSGLTNYKPSLKSRVTMSVDTSKNQFSLRLNSVTAADTAVYYCARERATVTTRYHYDGMDVWGQGTSVTVSS VL: QSALTQPASVSGSPGQSITISCTGSSSDIGTYNYVSWYQQYPGKAPELMIYEVNNRPSGVSDRFSGSTSGNTASLTISGLQANDEADYYCSSYSSSSTWVFGGGTKLTVL | 80% |

Source: patent US20220112295A1 (Novo Nordisk, published 2022)
